Tests used:
Experiment in all cases: cell-based or functional assay
[1] = target: HIV-1 Env of isolate 93IN905 (HIV-1)
[2] = target: HIV-1 Env of isolate 93MW959 (HIV-1)
[3] = target: HIV-1 Env of isolate 97ZA012 (HIV-1)
[4] = target: HIV-1 Env of isolate 98IN022 (HIV-1)
[5] = target: HIV-1 Env of isolate JRCSF (HIV-1) (UniProt P20871)
[6] = target: HIV-1 Env of isolate MGRM-Chronic-B-010 (HIV-1)
[7] = target: HIV-1 Env of isolate MGRM-Chronic-B-011 (HIV-1)
[8] = target: HIV-1 Env of isolate MGRM-Chronic-B-012 (HIV-1)
[9] = target: HIV-1 Env of isolate MGRM-Chronic-B-017 (HIV-1)
[10] = target: HIV-1 Env of isolate MGRM-Chronic-B-018 (HIV-1)
[11] = target: HIV-1 Env of isolate MGRM-Chronic-B-020 (HIV-1)
[12] = target: HIV-1 Env of isolate MGRM-Chronic-B-023 (HIV-1)
[13] = target: HIV-1 Env of isolate MGRM-Chronic-B-024 (HIV-1)
[14] = target: HIV-1 Env of isolate MGRM-D-011 (HIV-1)
[15] = target: HIV-1 Env of isolate MGRM-D-012 (HIV-1)
[16] = target: HIV-1 Env of isolate MGRM-D-013 (HIV-1)
[17] = target: HIV-1 Env of isolate MGRM-D-014 (HIV-1)
[18] = target: HIV-1 Env of isolate MGRM-D-016 (HIV-1)
[19] = target: HIV-1 Env of isolate MGRM-D-018 (HIV-1)
[20] = target: HIV-1 Env of isolate MGRM-D-019 (HIV-1)
[21] = target: HIV-1 Env of isolate MGRM-D-020 (HIV-1)
[22] = target: HIV-1 Env of isolate MGRM-D-021 (HIV-1)
[23] = target: HIV-1 Env of isolate MGRM-D-022 (HIV-1)
[24] = target: HIV-1 Env of isolate MGRM-D-024 (HIV-1)
[25] = target: HIV-1 Env of isolate MGRM-D-026 (HIV-1)
[26] = target: HIV-1 Env of isolate MGRM-D-028 (HIV-1)
[27] = target: HIV-1 Env of isolate MGRM-D-029 (HIV-1)
[28] = target: HIV-1 Env of isolate MGRM-F1-004 (HIV-1)
[29] = target: HIV-1 Env of isolate MGRM-F1-006 (HIV-1)
[30] = target: HIV-1 Env of isolate MGRM-F1-008 (HIV-1)
[31] = target: HIV-1 Env of isolate MGRM-F1-010 (HIV-1)
[32] = target: HIV-1 Env of isolate MGRM-F1-012 (HIV-1)
[33] = target: HIV-1 Env of isolate MGRM-F1-013 (HIV-1)
[34] = target: HIV-1 Env of isolate MGRM-F1-014 (HIV-1)
[35] = target: HIV-1 Env of isolate MGRM-F1-015 (HIV-1)
[36] = target: HIV-1 Env of isolate MGRM-F1-016 (HIV-1)
[37] = target: HIV-1 Env of isolate MGRM-F1-017 (HIV-1)
[38] = target: HIV-1 Env of isolate MGRM-F1-018 (HIV-1)
[39] = target: HIV-1 Env of isolate MGRM-F1-020 (HIV-1)
[40] = target: HIV-1 Env of isolate MGRM-F1-021 (HIV-1)
[41] = target: HIV-1 Env of isolate MGRM-F1-022 (HIV-1)
[42] = target: HIV-1 Env of isolate MGRM-F1-023 (HIV-1)
[43] = target: HIV-1 Env of isolate NL43 (HIV-1)
[44] = target: HIV-1 Env of isolate PVO.4 (HIV-1)
[45] = target: HIV-1 Env of isolate QH0692.42 (HIV-1)
[46] = target: HIV-1 Env of isolate SC422661.8 (HIV-1)
[47] = target: HIV-1 Env of isolate SF162 (HIV-1) (UniProt P19550)
[48] = target: HIV-1 Env of isolate THR0.18 (HIV-1)
[49] = target: HIV-1 Env of isolate TRJ04551.58 (HIV-1)
[50] = target: HIV-1 Env of isolate TRO.11 (HIV-1)
[51] = target: HIV-1 Env of isolate VLGCB3 (HIV-1)

Sequence of PGT-144 (antibody) (VH): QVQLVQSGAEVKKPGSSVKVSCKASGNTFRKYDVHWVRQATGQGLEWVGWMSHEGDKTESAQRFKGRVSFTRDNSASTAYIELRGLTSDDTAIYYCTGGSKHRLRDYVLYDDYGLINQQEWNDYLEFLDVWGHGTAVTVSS
Sequence of PGT-144 (antibody) (VL): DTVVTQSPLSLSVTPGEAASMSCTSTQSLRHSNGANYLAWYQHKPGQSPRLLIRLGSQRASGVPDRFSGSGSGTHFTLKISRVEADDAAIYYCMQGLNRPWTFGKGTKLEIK
Sequence of PGT-143 (antibody) (VH): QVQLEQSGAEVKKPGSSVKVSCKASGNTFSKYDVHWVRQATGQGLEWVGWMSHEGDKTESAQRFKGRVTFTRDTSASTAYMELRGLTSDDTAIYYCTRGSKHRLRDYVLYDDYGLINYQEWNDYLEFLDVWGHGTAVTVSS
Sequence of PGT-143 (antibody) (VL): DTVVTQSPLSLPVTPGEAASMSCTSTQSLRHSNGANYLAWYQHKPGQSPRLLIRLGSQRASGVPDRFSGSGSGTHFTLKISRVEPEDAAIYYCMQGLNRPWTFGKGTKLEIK

PGT-143 (antibody)
neutralization IC50 [1]: 0.002 µg/mL
neutralization IC50 [2]: 0.002 µg/mL
neutralization IC50 [3]: > 50 µg/mL
neutralization IC50 [4]: 0.001 µg/mL
neutralization IC50 [5]: 0.007 µg/mL
neutralization IC50 [6]: > 50 µg/mL
neutralization IC50 [7]: 1.56 µg/mL
neutralization IC50 [8]: > 50 µg/mL
neutralization IC50 [9]: 0.145 µg/mL
neutralization IC50 [10]: 0.377 µg/mL
neutralization IC50 [11]: > 50 µg/mL
neutralization IC50 [12]: 0.236 µg/mL
neutralization IC50 [13]: 0.01 µg/mL
IC50, pseudovirus neutralization [14]: > 50 µg/mL
IC50, pseudovirus neutralization [15]: > 50 µg/mL
IC50, pseudovirus neutralization [16]: 0.386 µg/mL
IC50, pseudovirus neutralization [17]: 0.009 µg/mL
IC50, pseudovirus neutralization [18]: > 50 µg/mL
IC50, pseudovirus neutralization [19]: > 50 µg/mL
IC50, pseudovirus neutralization [20]: 0.277 µg/mL
IC50, pseudovirus neutralization [21]: > 50 µg/mL
IC50, pseudovirus neutralization [22]: > 50 µg/mL
IC50, pseudovirus neutralization [23]: > 50 µg/mL
IC50, pseudovirus neutralization [24]: > 50 µg/mL
IC50, pseudovirus neutralization [25]: 44.6 µg/mL
IC50, pseudovirus neutralization [26]: > 50 µg/mL
IC50, pseudovirus neutralization [27]: 0.2 µg/mL
IC50, pseudovirus neutralization [28]: 0.036 µg/mL
IC50, pseudovirus neutralization [29]: 12.3 µg/mL
IC50, pseudovirus neutralization [30]: 0.189 µg/mL
IC50, pseudovirus neutralization [31]: > 50 µg/mL
IC50, pseudovirus neutralization [32]: > 50 µg/mL
IC50, pseudovirus neutralization [33]: 0.013 µg/mL
IC50, pseudovirus neutralization [34]: 0.001 µg/mL
IC50, pseudovirus neutralization [35]: > 50 µg/mL
IC50, pseudovirus neutralization [36]: > 50 µg/mL
IC50, pseudovirus neutralization [37]: 26.3 µg/mL
IC50, pseudovirus neutralization [38]: 0.701 µg/mL
IC50, pseudovirus neutralization [39]: 0.98 µg/mL
IC50, pseudovirus neutralization [40]: > 50 µg/mL
IC50, pseudovirus neutralization [41]: 0.082 µg/mL
IC50, pseudovirus neutralization [42]: 0.972 µg/mL
neutralization IC50 [43]: > 50 µg/mL
neutralization IC50 [44]: 0.162 µg/mL
neutralization IC50 [45]: > 50 µg/mL
neutralization IC50 [46]: 2.02 µg/mL
neutralization IC50 [47]: > 50 µg/mL
neutralization IC50 [48]: 0.016 µg/mL
neutralization IC50 [49]: > 50 µg/mL
neutralization IC50 [50]: 0.219 µg/mL
neutralization IC50 [51]: > 50 µg/mL

PGT-144 (antibody)
neutralization IC50 [1]: 0.132 µg/mL
neutralization IC50 [2]: 0.332 µg/mL
neutralization IC50 [3]: > 50 µg/mL
neutralization IC50 [4]: 0.171 µg/mL
neutralization IC50 [5]: 0.149 µg/mL
neutralization IC50 [6]: > 50 µg/mL
neutralization IC50 [7]: 5.64 µg/mL
neutralization IC50 [8]: > 50 µg/mL
neutralization IC50 [9]: 0.712 µg/mL
neutralization IC50 [10]: 2.4 µg/mL
neutralization IC50 [11]: > 50 µg/mL
neutralization IC50 [12]: > 50 µg/mL
neutralization IC50 [13]: 0.04 µg/mL
IC50, pseudovirus neutralization [14]: > 50 µg/mL
IC50, pseudovirus neutralization [15]: > 50 µg/mL
IC50, pseudovirus neutralization [16]: > 50 µg/mL
IC50, pseudovirus neutralization [17]: 0.113 µg/mL
IC50, pseudovirus neutralization [18]: > 50 µg/mL
IC50, pseudovirus neutralization [19]: > 50 µg/mL
IC50, pseudovirus neutralization [20]: > 50 µg/mL
IC50, pseudovirus neutralization [21]: > 50 µg/mL
IC50, pseudovirus neutralization [22]: > 50 µg/mL
IC50, pseudovirus neutralization [23]: > 50 µg/mL
IC50, pseudovirus neutralization [24]: > 50 µg/mL
IC50, pseudovirus neutralization [25]: > 50 µg/mL
IC50, pseudovirus neutralization [26]: > 50 µg/mL
IC50, pseudovirus neutralization [27]: 0.459 µg/mL
IC50, pseudovirus neutralization [28]: 0.105 µg/mL
IC50, pseudovirus neutralization [29]: 20.6 µg/mL
IC50, pseudovirus neutralization [30]: 0.507 µg/mL
IC50, pseudovirus neutralization [31]: > 50 µg/mL
IC50, pseudovirus neutralization [32]: > 50 µg/mL
IC50, pseudovirus neutralization [33]: 0.509 µg/mL
IC50, pseudovirus neutralization [34]: 0.014 µg/mL
IC50, pseudovirus neutralization [35]: > 50 µg/mL
IC50, pseudovirus neutralization [36]: > 50 µg/mL
IC50, pseudovirus neutralization [37]: > 50 µg/mL
IC50, pseudovirus neutralization [38]: > 50 µg/mL
IC50, pseudovirus neutralization [39]: 8.93 µg/mL
IC50, pseudovirus neutralization [40]: > 50 µg/mL
IC50, pseudovirus neutralization [41]: 0.382 µg/mL
IC50, pseudovirus neutralization [42]: 1.16 µg/mL
neutralization IC50 [43]: > 50 µg/mL
neutralization IC50 [44]: 0.535 µg/mL
neutralization IC50 [45]: > 50 µg/mL
neutralization IC50 [46]: > 50 µg/mL
neutralization IC50 [47]: > 50 µg/mL
neutralization IC50 [48]: 0.029 µg/mL
neutralization IC50 [49]: > 50 µg/mL
neutralization IC50 [50]: 4.73 µg/mL
neutralization IC50 [51]: > 50 µg/mL
